Earlier results as cited in article PMC2846211.

Biological target: DNA polymerase gamma accessory subunit (Homo sapiens) (UniProt Q9UHN1)
Sequence of UniProt Q9UHN1 (Q9UHN1 2-485): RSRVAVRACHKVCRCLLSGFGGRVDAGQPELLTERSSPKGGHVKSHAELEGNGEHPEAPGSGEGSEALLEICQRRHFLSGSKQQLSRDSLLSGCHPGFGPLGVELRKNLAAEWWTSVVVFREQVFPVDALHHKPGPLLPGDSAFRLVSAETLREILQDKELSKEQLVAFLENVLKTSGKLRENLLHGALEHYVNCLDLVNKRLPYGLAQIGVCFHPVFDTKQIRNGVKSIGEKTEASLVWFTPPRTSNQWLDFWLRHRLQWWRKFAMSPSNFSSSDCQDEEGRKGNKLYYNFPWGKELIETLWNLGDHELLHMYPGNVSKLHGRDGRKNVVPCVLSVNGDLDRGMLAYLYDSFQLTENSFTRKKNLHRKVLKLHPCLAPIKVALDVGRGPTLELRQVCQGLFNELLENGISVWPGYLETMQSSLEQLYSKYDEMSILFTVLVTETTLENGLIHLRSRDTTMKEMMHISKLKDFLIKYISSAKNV

In the case of “DNA polymerase gamma catalytic subunit (from UniProt P54098)”, the Kd is given as 35 nM.
